Data from the supplement of paper PMC10065799, “High-throughput profiling of sequence recognition by tyrosine kinases and SH2 domains using bacterial peptide display” (eLife, 2023).

Assays:
[1] = biological target: SHP2-C SH2; assay: SH2 binding enrichment of the phosphorylated peptide, bacterial display (enrichment ratio); higher = better substrate or ligand; peptides without Tyr show the background
[2] = biological target: Grb2 SH2 (UniProt P62993); assay: as above
[3] = biological target: c-Src SH2; assay: as above
[4] = system: c-Src; assay: phosphorylation enrichment, bacterial display (enrichment ratio); higher = better substrate or ligand; peptides without Tyr show the background
[5] = biological target: MERTK (UniProt Q12866); assay: as above
Chain of MERTK (Q12866 whole entry, looked up): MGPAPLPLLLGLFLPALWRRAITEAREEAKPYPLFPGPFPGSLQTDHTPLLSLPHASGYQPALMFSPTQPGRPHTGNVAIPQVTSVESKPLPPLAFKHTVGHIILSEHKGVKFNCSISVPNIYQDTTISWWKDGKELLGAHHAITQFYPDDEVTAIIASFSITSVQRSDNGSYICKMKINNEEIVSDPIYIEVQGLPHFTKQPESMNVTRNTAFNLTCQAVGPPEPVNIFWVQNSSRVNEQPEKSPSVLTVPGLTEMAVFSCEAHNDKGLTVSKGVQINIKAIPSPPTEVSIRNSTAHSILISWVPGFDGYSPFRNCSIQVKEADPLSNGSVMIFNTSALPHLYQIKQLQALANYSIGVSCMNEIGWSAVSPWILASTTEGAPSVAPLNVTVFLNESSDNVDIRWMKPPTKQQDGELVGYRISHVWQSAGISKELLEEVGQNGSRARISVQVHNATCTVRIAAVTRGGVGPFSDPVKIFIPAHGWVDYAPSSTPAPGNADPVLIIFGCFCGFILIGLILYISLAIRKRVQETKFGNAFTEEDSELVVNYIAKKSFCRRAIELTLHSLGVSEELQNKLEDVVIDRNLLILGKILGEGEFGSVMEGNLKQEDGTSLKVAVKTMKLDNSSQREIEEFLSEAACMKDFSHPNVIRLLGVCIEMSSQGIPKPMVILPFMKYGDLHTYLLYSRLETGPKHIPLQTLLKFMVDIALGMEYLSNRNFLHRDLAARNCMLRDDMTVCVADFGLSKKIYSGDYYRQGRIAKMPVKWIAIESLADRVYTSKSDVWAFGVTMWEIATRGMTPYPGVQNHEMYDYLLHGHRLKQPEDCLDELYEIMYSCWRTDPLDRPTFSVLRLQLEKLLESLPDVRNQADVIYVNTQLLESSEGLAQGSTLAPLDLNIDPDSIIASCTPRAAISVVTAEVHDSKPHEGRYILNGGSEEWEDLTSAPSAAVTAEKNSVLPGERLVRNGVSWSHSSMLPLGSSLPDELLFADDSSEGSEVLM

[6] = biological target: EPHB2 (UniProt P29323); assay: as above
Chain of EPHB2 (P29323 whole entry, looked up): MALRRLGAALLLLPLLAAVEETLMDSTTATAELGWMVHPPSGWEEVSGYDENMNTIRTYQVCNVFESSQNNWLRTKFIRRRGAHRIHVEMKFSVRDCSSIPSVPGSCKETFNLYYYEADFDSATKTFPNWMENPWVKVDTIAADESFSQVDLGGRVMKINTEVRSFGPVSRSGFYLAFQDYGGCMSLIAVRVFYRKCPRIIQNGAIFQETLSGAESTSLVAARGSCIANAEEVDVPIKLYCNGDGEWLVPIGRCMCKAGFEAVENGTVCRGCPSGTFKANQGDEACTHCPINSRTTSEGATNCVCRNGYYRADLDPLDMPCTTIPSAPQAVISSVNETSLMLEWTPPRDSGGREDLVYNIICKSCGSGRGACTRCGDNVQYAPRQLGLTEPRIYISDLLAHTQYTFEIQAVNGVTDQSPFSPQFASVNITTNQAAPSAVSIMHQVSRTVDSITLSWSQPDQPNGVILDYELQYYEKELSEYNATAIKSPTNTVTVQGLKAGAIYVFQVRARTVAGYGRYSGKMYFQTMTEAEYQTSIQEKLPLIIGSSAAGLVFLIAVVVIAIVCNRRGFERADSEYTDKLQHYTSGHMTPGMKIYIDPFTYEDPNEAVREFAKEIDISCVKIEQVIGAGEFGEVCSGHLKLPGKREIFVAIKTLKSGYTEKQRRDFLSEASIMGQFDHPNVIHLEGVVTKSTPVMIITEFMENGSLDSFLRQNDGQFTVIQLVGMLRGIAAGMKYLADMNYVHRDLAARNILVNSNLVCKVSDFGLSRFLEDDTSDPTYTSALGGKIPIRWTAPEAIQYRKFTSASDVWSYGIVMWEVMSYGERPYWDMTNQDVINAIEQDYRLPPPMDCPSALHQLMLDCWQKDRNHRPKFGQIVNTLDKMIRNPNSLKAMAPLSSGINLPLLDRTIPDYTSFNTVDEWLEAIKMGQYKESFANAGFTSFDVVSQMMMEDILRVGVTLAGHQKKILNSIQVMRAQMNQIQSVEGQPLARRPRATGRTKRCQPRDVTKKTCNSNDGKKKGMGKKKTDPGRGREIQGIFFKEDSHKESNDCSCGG

[7] = biological target: FGFR3 (UniProt P22607); assay: as above
[8] = system: Fer (mouse); assay: as above
[9] = biological target: Fes (UniProt P07332); assay: as above
[10] = system: AncSZ; assay: as above
[11] = system: c-Abl (mouse); assay: as above
[12] = biological target: EPHB1 (UniProt P54762); assay: as above
[13] = biological target: Fyn (UniProt P06241); assay: as above
Chain of Fyn (P06241 whole entry, looked up): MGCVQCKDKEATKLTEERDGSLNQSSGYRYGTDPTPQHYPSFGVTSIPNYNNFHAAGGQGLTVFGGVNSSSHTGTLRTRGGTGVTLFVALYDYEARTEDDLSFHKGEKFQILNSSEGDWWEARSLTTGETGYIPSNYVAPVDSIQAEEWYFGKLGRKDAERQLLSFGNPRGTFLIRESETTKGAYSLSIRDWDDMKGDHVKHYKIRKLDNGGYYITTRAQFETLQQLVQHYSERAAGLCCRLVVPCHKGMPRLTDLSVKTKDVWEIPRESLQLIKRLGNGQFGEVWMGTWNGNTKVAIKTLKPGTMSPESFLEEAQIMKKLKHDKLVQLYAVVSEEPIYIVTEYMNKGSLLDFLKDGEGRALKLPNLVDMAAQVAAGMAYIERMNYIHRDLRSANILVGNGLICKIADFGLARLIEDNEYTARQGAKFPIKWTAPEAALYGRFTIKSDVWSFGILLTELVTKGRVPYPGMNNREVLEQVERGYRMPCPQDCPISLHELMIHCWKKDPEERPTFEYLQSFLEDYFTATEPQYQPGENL

[14] = biological target: Hck (UniProt P08631); assay: as above
Chain of Hck (P08631 whole entry, looked up): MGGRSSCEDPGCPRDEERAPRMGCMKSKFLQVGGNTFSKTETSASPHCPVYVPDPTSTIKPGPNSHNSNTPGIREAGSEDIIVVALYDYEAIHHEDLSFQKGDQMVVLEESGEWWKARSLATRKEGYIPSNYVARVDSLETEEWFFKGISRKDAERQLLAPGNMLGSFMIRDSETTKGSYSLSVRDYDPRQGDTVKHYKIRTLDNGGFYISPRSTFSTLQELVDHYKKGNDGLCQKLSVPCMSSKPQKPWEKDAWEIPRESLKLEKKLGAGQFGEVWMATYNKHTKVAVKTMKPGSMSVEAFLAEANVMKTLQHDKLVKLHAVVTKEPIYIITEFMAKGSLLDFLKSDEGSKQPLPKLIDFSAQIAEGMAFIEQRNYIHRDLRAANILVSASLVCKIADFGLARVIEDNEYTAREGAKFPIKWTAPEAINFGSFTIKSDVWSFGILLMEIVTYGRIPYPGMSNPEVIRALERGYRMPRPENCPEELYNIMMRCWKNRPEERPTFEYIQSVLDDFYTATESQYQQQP

[15] = biological target: Jak2 (UniProt O60674); assay: as above
Chain of Jak2 (O60674 whole entry, looked up): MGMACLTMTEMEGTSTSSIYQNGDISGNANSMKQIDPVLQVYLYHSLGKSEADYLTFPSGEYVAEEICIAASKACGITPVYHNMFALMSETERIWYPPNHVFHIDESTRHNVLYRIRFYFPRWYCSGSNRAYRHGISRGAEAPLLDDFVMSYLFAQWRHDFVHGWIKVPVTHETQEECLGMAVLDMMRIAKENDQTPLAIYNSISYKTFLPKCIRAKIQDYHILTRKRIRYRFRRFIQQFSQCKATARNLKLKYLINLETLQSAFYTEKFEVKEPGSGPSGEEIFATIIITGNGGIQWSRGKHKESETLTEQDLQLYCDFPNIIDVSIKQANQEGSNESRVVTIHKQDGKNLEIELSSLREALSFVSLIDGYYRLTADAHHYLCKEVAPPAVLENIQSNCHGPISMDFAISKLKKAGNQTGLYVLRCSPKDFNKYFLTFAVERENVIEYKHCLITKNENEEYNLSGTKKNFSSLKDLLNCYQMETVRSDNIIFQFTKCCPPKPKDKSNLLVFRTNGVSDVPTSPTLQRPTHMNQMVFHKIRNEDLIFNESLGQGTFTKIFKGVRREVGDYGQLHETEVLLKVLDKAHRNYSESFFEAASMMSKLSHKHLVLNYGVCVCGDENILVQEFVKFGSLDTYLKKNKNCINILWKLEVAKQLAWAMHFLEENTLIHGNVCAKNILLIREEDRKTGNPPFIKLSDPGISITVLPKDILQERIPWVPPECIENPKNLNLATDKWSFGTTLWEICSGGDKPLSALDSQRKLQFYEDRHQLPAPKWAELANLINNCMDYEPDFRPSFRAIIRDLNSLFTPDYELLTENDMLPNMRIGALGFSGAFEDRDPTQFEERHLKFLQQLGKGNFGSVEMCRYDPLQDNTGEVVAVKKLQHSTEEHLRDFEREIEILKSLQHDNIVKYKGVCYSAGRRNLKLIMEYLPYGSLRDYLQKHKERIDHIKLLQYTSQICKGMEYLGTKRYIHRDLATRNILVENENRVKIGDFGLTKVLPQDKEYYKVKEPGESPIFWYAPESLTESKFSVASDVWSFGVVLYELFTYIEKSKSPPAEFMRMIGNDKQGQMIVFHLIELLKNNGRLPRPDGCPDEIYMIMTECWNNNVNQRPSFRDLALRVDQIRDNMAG

[16] = biological target: FGFR1 (UniProt P11362); assay: as above
Chain of FGFR1 (P11362 whole entry, looked up, the tested form may be a part): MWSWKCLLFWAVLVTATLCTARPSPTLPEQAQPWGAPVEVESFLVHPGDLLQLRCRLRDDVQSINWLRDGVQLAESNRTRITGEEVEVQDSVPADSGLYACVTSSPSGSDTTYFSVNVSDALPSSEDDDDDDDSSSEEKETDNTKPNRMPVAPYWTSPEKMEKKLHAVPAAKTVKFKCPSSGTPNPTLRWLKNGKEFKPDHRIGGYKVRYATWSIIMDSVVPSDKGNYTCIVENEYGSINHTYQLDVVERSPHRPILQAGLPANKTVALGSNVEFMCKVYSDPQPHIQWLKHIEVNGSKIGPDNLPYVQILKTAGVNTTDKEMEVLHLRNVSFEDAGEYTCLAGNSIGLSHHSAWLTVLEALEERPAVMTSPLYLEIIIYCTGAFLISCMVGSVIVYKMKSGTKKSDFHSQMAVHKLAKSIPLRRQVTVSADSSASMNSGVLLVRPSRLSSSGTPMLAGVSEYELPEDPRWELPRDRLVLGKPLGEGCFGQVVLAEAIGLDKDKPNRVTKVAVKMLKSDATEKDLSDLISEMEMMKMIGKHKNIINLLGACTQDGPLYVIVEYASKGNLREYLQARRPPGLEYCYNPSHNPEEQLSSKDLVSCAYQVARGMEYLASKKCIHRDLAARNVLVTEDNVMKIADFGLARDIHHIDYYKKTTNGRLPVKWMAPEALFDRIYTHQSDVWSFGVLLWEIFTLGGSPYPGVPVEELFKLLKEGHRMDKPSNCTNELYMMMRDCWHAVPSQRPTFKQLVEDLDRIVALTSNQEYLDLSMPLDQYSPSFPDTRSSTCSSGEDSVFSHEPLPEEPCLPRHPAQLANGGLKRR
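For SH2 binding enrichment of the phosphorylated peptide, bacterial display in this document: peptide library displayed on the E. coli surface as eCPX fusions, selected cells deep-sequenced, score is each peptide's frequency after selection divided by its frequency in the input.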
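For phosphorylation enrichment, bacterial display in this document: 11-residue human phosphosite peptides and single-mutation variants displayed on the E. coli surface, counted by deep sequencing, each peptide's frequency after selection divided by its frequency in the unselected input library; frequency after pTyr selection over input frequency; kinase dosed for 20-30% of maximal phosphorylation in three min.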

Sequence | SH2 binding enrichment [1] | SH2 binding enrichment [2] | SH2 binding enrichment [3] | phosphorylation enrichment [4] | phosphorylation enrichment [5] | phosphorylation enrichment [6] | phosphorylation enrichment [7] | phosphorylation enrichment [8] | phosphorylation enrichment [9] | phosphorylation enrichment [10] | phosphorylation enrichment [11] | phosphorylation enrichment [12] | phosphorylation enrichment [13] | phosphorylation enrichment [14] | phosphorylation enrichment [15] | phosphorylation enrichment [16]
KSPDSYQKILL [ATM_Y1415] | 0.631 | 0.805 | 1.24 | 0.429 | 0.437 | 0.437 | 0.451 | 0.393 | 0.801 | 0.55 | 0.569 | 0.397 | 0.372 | 0.395 | 0.712 | 0.488
ATHSGYRLNDY [CLDN14_Y233] | 0.623 | 0.709 | 0.49 | 0.493 | 0.393 | 0.491 | 0.491 | 0.395 | 0.739 | 0.568 | 0.556 | 0.518 | 0.389 | 0.397 | 0.706 | 0.503
LEKISYVYMKR [SSX7_Y48] | 3.38 | 1.03 | 1.02 | 0.547 | 0.81 | 1.37 | 1.32 | 0.875 | 1.75 | 1.72 | 1.3 | 1.23 | 1.21 | 1.18 | 1.37 | 0.784
DRLTVYIDRVR [LMNA_Y45_A43T] | 0.919 | 0.953 | 0.636 | 0.324 | 0.312 | 0.614 | 0.779 | 0.433 | 1.26 | 1.34 | 0.749 | 0.553 | 0.409 | 0.458 | 1.15 | 0.426
FSGKAYADEEQ [CRIM1_Y826_R831Q] | 0.8 | 0.992 | 0.528 | 0.41 | 0.552 | 0.675 | 0.81 | 0.529 | 1.14 | 1.12 | 1.2 | 0.581 | 0.522 | 0.565 | 1.31 | 0.459
KASIMYPSNNC [CXCL11_Y52] | 0.504 | 0.952 | 0.589 | 0.394 | 0.368 | 0.472 | 0.49 | 0.359 | 0.786 | 0.673 | 0.518 | 0.528 | 0.446 | 0.459 | 0.604 | 0.484
WVYNHYRCIIW [BRCA2_Y2624_W2626C] | 1 | 0.94 | 0.58 | 0.481 | 0.659 | 0.645 | 0.891 | 0.569 | 1.63 | 1.28 | 1.18 | 0.806 | 0.515 | 0.538 | 1.4 | 0.562
RLGNQHVNVMN [SLC3A1_Y461_Y461H] | 0.762 | 0.987 | 0.429 | 0.717 | 0.53 | 0.612 | 0.691 | 0.504 | 1.09 | 0.793 | 0.947 | 0.694 | 0.627 | 0.505 | 1.09 | 0.567
GESLTYASTTF [C1orf162_Y120] | 0.679 | 0.752 | 0.649 | 2.63 | 0.574 | 0.644 | 0.408 | 0.52 | 0.551 | 0.592 | 1.19 | 0.5 | 2.25 | 2.68 | 0.505 | 0.401
ELTSKYRGGGG [HBA1_Y141_V136E] | 0.725 | 0.939 | 0.469 | 0.434 | 0.503 | 0.385 | 0.411 | 0.313 | 0.573 | 0.515 | 0.471 | 0.412 | 0.353 | 0.422 | 0.678 | 0.333
DLFRLYICVKE [ARID1B_Y1091_V1092I] | 0.521 | 0.744 | 0.384 | 0.499 | 0.391 | 0.715 | 1 | 0.591 | 1.61 | 1.19 | 0.997 | 0.741 | 0.456 | 0.572 | 1.45 | 0.471
EICTQYEAMAS [GFAP_Y242_R239C] | 0.804 | 0.989 | 2.84 | 0.601 | 0.55 | 0.614 | 0.683 | 0.829 | 1.15 | 1.23 | 0.71 | 0.65 | 0.576 | 0.708 | 0.777 | 0.517
VHKKGYNKLNQ [ZNF676_Y98_E96K] | 0.885 | 1.08 | 0.962 | 0.488 | 0.384 | 0.374 | 0.516 | 0.439 | 0.66 | 0.408 | 0.645 | 0.48 | 0.403 | 0.43 | 0.569 | 0.494
PLLEFYWDIFT [CDAN1_Y713_R714W_YF] | 0.719 | 0.926 | 0.527 | 0.412 | 0.284 | 0.645 | 0.94 | 0.527 | 1.2 | 0.971 | 0.828 | 0.833 | 0.448 | 0.458 | 1.17 | 0.428
KKKKQYKDKYL [CASK_Y708] | 0.244 | 0.872 | 0.275 | 0.728 | 0.631 | 0.393 | 0.471 | 0.587 | 0.534 | 0.614 | 0.837 | 0.53 | 0.454 | 0.548 | 0.475 | 0.506
KPVEEYANCHL [TF_Y593] | 0.758 | 1.1 | 1.25 | 0.547 | 0.544 | 0.549 | 0.65 | 0.481 | 1.11 | 0.96 | 0.755 | 0.623 | 0.472 | 0.613 | 0.915 | 0.61
TRFDEYLEVTK [MAP1A_Y2217_H2214Y_YF] | 0.78 | 0.814 | 0.528 | 0.444 | 0.819 | 0.723 | 0.823 | 0.501 | 1.22 | 1.32 | 0.731 | 0.789 | 0.571 | 0.619 | 1.25 | 0.949
